How the values were obtained:
[1] = biological target: murine TIGIT (mTIGIT) on B3Z T-cell hybridoma cells (mouse) (UniProt P86176); assay: cell-based or functional assay
[2] = biological target: murine TIGIT (mTIGIT) tagged with FLAG and GFP, on cells (mouse) (UniProt P86176); assay: cell-based or functional assay
[3] = biological target: T1, mouse TIGIT ECD-CD4TM-GFP on HEK-293T cells (mouse, UniProt P86176 29-148); assay: flow cytometry of rabbit antibody supernatant on HEK-293T cells transiently transfected with mouse TIGIT ECD-CD4TM-GFP; antibody signal against GFP
T1 construct: The legend names the construct as mouse TIGIT ECD; also called mouse TIGIT-CD4TM-GFP; mTIGIT-CD4TM-GFP; not shown: transmembrane domain of CD4 (CD4TM); GFP (green fluorescent protein)
T1 sequence: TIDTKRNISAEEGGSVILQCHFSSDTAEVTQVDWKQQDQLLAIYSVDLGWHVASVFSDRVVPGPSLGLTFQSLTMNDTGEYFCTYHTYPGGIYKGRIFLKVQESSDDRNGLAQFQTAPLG

[4] = biological target: T1, mouse TIGIT ECD-CD4TM-GFP on HEK-293T …; assay: flow cytometry, 1 µg/ml antibody on transiently transfected HEK-293T cells, PE-conjugated anti-Fc secondary, signal against TIGIT-GFP
Description: The TIGIT variants were evaluated by FACS with anti-hTIGIT antibodies. […] After 16 hours, transfected cells were suspended in ice cold HBSS containing 2% FBS and incubated on ice with 1 μg/ml anti-hTIGIT antibodies 313R12, 313M32, or 313M34 for 30 minutes. 313M34 is an anti-hTIGIT antibody that was generated based upon the amino acid sequences of the 10A7 antibody described in U.S. Publication 2009/0258013. The 10A7 antibody is an anti-mouse TIGIT antibody that binds both mouse TIGIT and human TIGIT. A second incubation with 50 μl PE-conjugated anti-Fc secondary antibody was performed to detect cells bound by the antibodies. The cells were analyzed on a FACSCanto instrument (BD Biosciences) and the data was processed using FlowJo software.

human TIGIT = biological target: T2, human TIGIT (human, UniProt Q495A1 22-141, limits assumed); assay: Biacore, preliminary; format not stated
T2 construct: also called hTIGIT
T2 sequence: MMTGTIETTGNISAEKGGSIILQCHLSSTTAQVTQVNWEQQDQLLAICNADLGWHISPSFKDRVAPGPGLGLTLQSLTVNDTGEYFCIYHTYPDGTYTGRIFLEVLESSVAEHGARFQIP

hPVR-rbFc fusion protein = biological target: T3, hPVR-rbFc fusion protein (human, UniProt P15151 21-343); assay: flow cytometry of hPVR-rbFc on HEK-293T cells with hTIGIT-CD4TM-GFP, detected with anti-rabbit Fc-PE, no antibody added
T3 construct: extracellular domain; Expressed in CHO cells, purified on protein A; also called human PVR-rabbit Fc fusion protein; not shown: rabbit Fc region
T3 sequence (looked up): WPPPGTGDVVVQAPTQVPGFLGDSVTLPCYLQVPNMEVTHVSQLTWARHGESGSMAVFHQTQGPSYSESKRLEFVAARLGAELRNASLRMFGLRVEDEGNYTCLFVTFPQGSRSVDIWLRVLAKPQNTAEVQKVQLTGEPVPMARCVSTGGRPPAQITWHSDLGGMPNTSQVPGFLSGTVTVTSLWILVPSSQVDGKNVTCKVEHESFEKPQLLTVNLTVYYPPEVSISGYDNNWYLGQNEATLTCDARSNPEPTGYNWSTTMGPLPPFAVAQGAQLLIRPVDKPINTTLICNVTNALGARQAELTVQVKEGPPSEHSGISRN
Description: FIGS. 19A and 19B. FACS analysis of anti-TIGIT antibody blocking binding of human TIGIT to PVR. […] Transfected cells were incubated with soluble human PVR-Fc fusion protein in the presence of antibodies generated to TIGIT (313R19, 313M26, or 313M32) at concentrations of 10, 2, or 0.4 μg/ml or no antibody and analyzed by flow cytometry. Specific binding is indicated by the presence of a diagonal signal within a FACS plot. […] Specific binding is indicated by the presence of a diagonal signal within a FACS plot.
After 16 hours, transfected cells were suspended in ice cold HBSS containing 2% FBS and heparin and incubated on ice with 0.5 μg/ml hPVR-rbFc fusion protein in the presence of anti-TIGIT antibodies 313R19, 313M26, or 313M32 for 60 minutes. Antibody 313R19 is a humanized version of a rabbit anti-TIGIT antibody. 313R19 binds mouse and human TIGIT. The antibodies were tested at concentrations of 10, 2, and 0.4 ug/ml. Cells were incubated without antibody or without hPVR-rbFc as controls. A second incubation with 100 μl PE-conjugated anti-rabbit Fc secondary antibody was performed to detect cells bound by the hPVR-rbFc fusion protein. The cells were analyzed on a FACSCanto instrument (BD Biosciences) and the data was processed using FlowJo software.

murine PVR (mPVR) on cells (ligand)
ratio of IL-2 secretion in response to mPVR-expressing tumor cells to that in response to mPVR-negative tumor cells (ELISA) [1]: < 1
ratio of NK-92 cytotoxicity against 721.221-mPVR cells to that against parental 721.221 cells (calcein release) [2]: < 1

B1: anti-TIGIT antibody 313Rb1 (antibody, V domains shown)
VH: QVQLESEGGLFKPTDTLTLTCTVSGSSLSSSYMSWVRQAPGKGLEWIGIIGSNGNTYYANWAKGRFTISKTSTTVELKITSPTTEDTATYFCARGGYRTSGMDPWGPGTLVTVSS
VL: DIVMTQTPASVEVAVGGTVTIKCQASQSISSYLNWYQQKPGQPPKLLIYDALKLASGVPSRFSGSGSGTEYTLTISGVESADAATYYCQQEHSVGNVDNVFGGGTEVVVKR
notes: Rabbit antibody raised against the extracellular domain of mouse TIGIT
binding result [3]: binds

B2: anti-TIGIT antibody 313R12 (antibody, mouse IgG2a, kappa, V domains shown)
VH: QVQLESEGGLFKPTDTLTLTCTVSGSSLSSSYMSWVRQAPGKGLEWIGIIGSNGNTYYANWAKGRFTISKTSTTVELKITSPTTEDTATYFCARGGYRTSGMDPWGPGTLVTVSS
VL: DIVMTQTPASVEVAVGGTVTIKCQASQSISSYLNWYQQKPGQPPKLLIYDALKLASGVPSRFSGSGSGTEYTLTISGVESADAATYYCQQEHSVGNVDNVFGGGTEVVVKR
notes: Chimeric antibody: variable regions of 313Rb1 in a mouse IgG2a format
binding result [4]: binds

B3: anti-TIGIT antibody 313R19 (antibody, human IgG1, kappa, V domains shown)
VH: QVQLQESGPGLVKPSETLSLTCTVSGFSLSSSYMSWIRQPPGKGLEWIGIIGSNGNTYYANWAKGRVTISKSSNQVSLKLSSVTAADTAVYYCARGGYRTSGMDPWGQGTLVTVSS
VL: DIQMTQSPSSLSASVGDRVTITCQASQNIYSDLAWYQQKPGKAPKLLIYRASTLASGVPSRFSGSGSGTDFTLTISSLQPEDFATYYCQQEHLVAWIYNVFGQGTKVEIKR
notes: Humanized rabbit antibody, human IgG1
Kd (human TIGIT): 2 nM

B4: hTIGIT-CD4TM-GFP on HEK-293T cells (receptor)
chain: MMTGTIETTGNISAEKGGSIILQCHLSSTTAQVTQVNWEQQDQLLAICNADLGWHISPSFKDRVAPGPGLGLTLQSLTVNDTGEYFCIYHTYPDGTYTGRIFLEVLESSVAEHGARFQIP
notes: Cell surface fusion protein, transiently expressed; also called human TIGIT ECD-CD4TM-GFP; FLAG-hTIGIT-CD4TM-GFP; not shown: transmembrane domain of CD4 (CD4TM); C-terminal GFP protein tag
binding result (hPVR-rbFc fusion protein): binds
